The record followed here is paper doi:10.1101/2025.05.13.653593 (bioRxiv, 2025).

In this experiment the target is T1, EccB5 (encoded by the Rv1782c gene), spotted on the Mtb proteome microarray (Mycobacterium tuberculosis, UniProt P9WNQ9 1-506).
T1 sequence: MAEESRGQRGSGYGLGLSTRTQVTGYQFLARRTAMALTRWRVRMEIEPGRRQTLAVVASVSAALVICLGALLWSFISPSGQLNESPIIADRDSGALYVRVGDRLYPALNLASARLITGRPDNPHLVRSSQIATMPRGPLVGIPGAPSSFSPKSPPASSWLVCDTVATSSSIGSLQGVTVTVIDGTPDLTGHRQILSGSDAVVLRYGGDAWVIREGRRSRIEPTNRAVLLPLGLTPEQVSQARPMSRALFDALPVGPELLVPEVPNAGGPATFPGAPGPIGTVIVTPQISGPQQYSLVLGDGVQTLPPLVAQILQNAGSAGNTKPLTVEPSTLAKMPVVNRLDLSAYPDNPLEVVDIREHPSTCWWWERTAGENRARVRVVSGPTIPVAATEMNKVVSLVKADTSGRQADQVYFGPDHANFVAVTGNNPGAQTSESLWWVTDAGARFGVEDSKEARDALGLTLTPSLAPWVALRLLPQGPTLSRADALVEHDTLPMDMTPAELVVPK
The experiment is described as follows: peptide or protein array. The note with it: both partners purified.

B1: recombinant human GSDMD protein (natural protein, UniProt P57764 1-484, looked up)
chain: MGSAFERVVRRVVQELDHGGEFIPVTSLQSSTGFQPYCLVVRKPSSSWFWKPRYKCVNLSIKDILEPDAAEPDVQRGRSFHFYDAMDGQIQGSVELAAPGQAKIAGGAAVSDSSSTSMNVYSLSVDPNTWQTLLHERHLRQPEHKVLQQLRSRGDNVYVVTEVLQTQKEVEVTRTHKREGSGRFSLPGATCLQGEGQGHLSQKKTVTIPSGSTLAFRVAQLVIDSDLDVLLFPDKKQRTFQPPATGHKRSTSEGAWPQLPSGLSMMRCLHNFLTDGVPAEGAFTEDFQGLRAEVETISKELELLDRELCQLLLEGLEGVLRDQLALRALEEALEQGQSLGPVEPLDGPAGAVLECLVLSSGMLVPELAIPVVYLLGALTMLSETQHKLLAEALESQTLLGPLELVGSLLEQSAPWQERSTMSLPPGLLGNSWGEGAPAWVLLDECGLELGEDTPHVCWEPQAQGRMCALYASLALLSGLSQEPH
notes: also called gasdermin D; recombinant GSDMD
For the molecule B1, the binding result is given as “binds”.
